According to patent US20150307565A1 (WISCONSIN ALUMNI RESEARCH FOUNDATION, published 2015):

B1: Arabidopsis PhyB(90-624) biliprotein bearing a C-terminal SLHHHHHH tag, assembled with phytochromobilin (PΦB) (receptor, Arabidopsis thaliana)
chain: TTYGSSVPEQQITAYLSRIQRGGYIQPFGCMIAVDESSFRIIGYSENAREMLGIMPQSVPTLEKPEILAMGTDVRSLFTSSSSILLERAFVAREITLLNPVWIHSKNTGKPFYAILHRIDVGVVIDLEPARTEDPALSIAGAVQSQKLAVRAISQLQALPGGDIKLLCDTVVESVRDLTGYDRVMVYKFHEDEHGEVVAESKRDDLEPYIGLHYPATDIPQASRFLFKQNRVRMIVDCNATPVLVVQDDRLTQSMCLVGSTLRAPHGCHSQYMANMGSIASLAMAVIINGNEDDGSNVASGRSSMRLWGLVVCHHTSSRCIPFPLRYACEFLMQAFGLQLNMELQLALQMSEKRVLRTQTLLCDMLLRDSPAGIVTQSPSIMDLVKCDGAAFLYHGKYYPLGVAPSEVQIKDVVEWLLANHADSTGLSTDSLGDAGYPGAAALGDAVCGMAVAYITKRDFLFWFRSHTAKEIKWGGAKHHPEDKDDGQRMHPRSSFQAFLEVVKSRSQPWETAEMDAIHSLQLILRDSFKESEAASLHHHHHH
modifications: phytochromobilin (PΦB) attached by a thioether linkage to Cys-357
notes: Crystallized as Pr; Two subunits (A and B) form the crystal dimer; also called PDB 4OUR
B2: Arabidopsis PhyB PSM (residues 1-624) assembled with PΦB (receptor, Arabidopsis thaliana, UniProt P14713 1-624, looked up)
chain: MVSGVGGSGGGRGGGRGGEEEPSSSHTPNNRRGGEQAQSSGTKSLRPRSNTESMSKAIQQYTVDARLHAVFEQSGESGKSFDYSQSLKTTTYGSSVPEQQITAYLSRIQRGGYIQPFGCMIAVDESSFRIIGYSENAREMLGIMPQSVPTLEKPEILAMGTDVRSLFTSSSSILLERAFVAREITLLNPVWIHSKNTGKPFYAILHRIDVGVVIDLEPARTEDPALSIAGAVQSQKLAVRAISQLQALPGGDIKLLCDTVVESVRDLTGYDRVMVYKFHEDEHGEVVAESKRDDLEPYIGLHYPATDIPQASRFLFKQNRVRMIVDCNATPVLVVQDDRLTQSMCLVGSTLRAPHGCHSQYMANMGSIASLAMAVIINGNEDDGSNVASGRSSMRLWGLVVCHHTSSRCIPFPLRYACEFLMQAFGLQLNMELQLALQMSEKRVLRTQTLLCDMLLRDSPAGIVTQSPSIMDLVKCDGAAFLYHGKYYPLGVAPSEVQIKDVVEWLLANHADSTGLSTDSLGDAGYPGAAALGDAVCGMAVAYITKRDFLFWFRSHTAKEIKWGGAKHHPEDKDDGQRMHPRSSFQAFLEVVKSRSQPWETAEMDAIHSLQLILRDSFKESEAA
modifications: phytochromobilin (PΦB) attached by a thioether linkage to Cys-357
notes: Tested for self-association in solution as Pr (equilibrium sedimentation, SEC) and as mostly Pfr after red light (SEC); also called full PSM fragment; full-length PSM; not shown: 6His tag: the PSM constructs carried N- or C-terminal 6His tags (the N-terminal one is TEV-cleavable and leaves Gly-His)

Legend:
[1] = target: the molecule itself; assay: X-ray crystallography (self-association in the crystal)
Protocol: Well ordered crystals were formed in solutions containing 15 mg/ml PhyB, 1.2 M MgSO₄, 4% glycerol, 1% poly(ethylene glycol) 3350, and 100 mM BisTris(HCl) (pH 5.5). Crystals were exchanged into 100 mM MgSO₄, 25% poly(ethylene glycol) 3350, 15% poly(ethylene glycol) 550 monomethyl ether, and 100 mM BisTris (pH 5.5), and flash cooled in liquid nitrogen. Final datasets were collected at the Life Sciences Collaborative Access Team at the Advanced Photon Source (Argonne, Ill.), and indexed, integrated, and scaled using HKL2000 (Otwinowski et al., Method Enzymol. 276-307-326 (1997)). Initial phases were calculated by PHASER (McCoy et al., J. Appl. Crystallogr 40:658-674 (2007)) using the PAS-GAF region of Syn-Cph1 as the search model (PDB 2VEA, (Essen et al., Proc. Natl. Acad. Sci. USA 105:14709-14714 (2008)). Manual model-building was conducted with COOT (Emlsey et al., Acta Crystallogr D Biol. Crystallogr 60:2126-2132 (2004)) and refined with PHENIX (McCoy et al., J. Appl. Crystallogr 40:658-674 (2007)) without real-space refinement and invoking non-crystallographic symmetry in torsion angle mode, and validated with MOLPROBITY (Chen et al., Acta Crystallogr D Biol. Crystallogr 66:12-21 (2010)). Superpositions were arranged with LSQKAB (Kabsch, Acta Crystallogr A 32:922-923 (1976)).

[2] = target: the molecule itself; assay: equilibrium sedimentation (Pr) and size exclusion chromatography (Pr and Pfr); self-association
Protocol: FIG. 8A: Apparent size of PhyB(PSM) was measured by size exclusion chromatography (SEC) as either Pr (red circle) or following saturating red light irradiation (mostly Pfr) (purple circle). The column was calibrated with Bio-Rad size-exclusion protein standards and blue dextran (open circles). The partition coefficient, Kₐᵥ, was calculated using the equation, Kₐᵥ=(Vₑ−V₀)/(Vₜ−V₀), where Vₑ, V₀, and Vₜ are the elution, void and total volumes, respectively. V₀ and Vₜ were measured using blue dextran and vitamin B12. FIG. 8B: Equilibrium sedimentation was used to measure the mass of PhyB(PSM) as Pr using two concentrations and three rotor speeds. Lines represent global fits of the data. The calculated ratio of the measured molecular weight to that calculated from the sequence is shown.
Equilibrium sedimentation was conducted at 20° C. in darkness with Beckmann XL-A analytical ultracentrifuge and PhyB dissolved as Pr in SAB. SEC was conducted at 20° C. by FPLC (0.2 ml/min) with a 0.5×20 cm analytical grade Superdex 200 column (GE) equilibrated with SAB and 50 μl of either Pr samples or samples continuously irradiated with red light (mostly Pfr).

| Protein | binding result [1] | binding result [2] |
| --- | --- | --- |
| B1 | binds |  |
| B2 |  | no binding |
